Results on seven molecules are retold here after patent publication US9969998B2, “Compositions of adenosine deaminase-2 (ADA2), variants thereof and methods of using same” (Halozyme, Inc., priority 2014, dated 2018).

The term Km denotes the substrate concentration at which the rate is half of its maximum. In general, Vmax refers to the top rate of the reaction or transport when substrate is in excess. The kcat is the maximal rate divided by the concentration of active sites.

A short description of data set [1]: Heparin-affinity chromatography (heparin-Sepharose, SDS-PAGE). The format is binding. The note with it: for Heparin Column Binding: compared to WT rHuADA2, 0.3 mg/mL protein. The method, then:
To assess binding of variants to heparin, heparin-affinity chromatography was employed to identify heparin-bound variants. Heparin binding was tested by mixing 35 μL of rHuADA2 WT and variants with 20 μL heparin-Sepharose™ resin (GE Healthcare, Pittsburgh, Pa.; Cat. No. 17-0998-01), followed by incubating at room temperature for 30 min. The mixture was then centrifuged through a 0.22 μm centrifuge filter and the flow-through, containing the unbound protein, was collected for analysis on an SDS-PAGE gel. 35 μL of 1.5 M NaCl was added to heparin-Sepharose resin and incubated at room temperature (RT) for 10 min to elute the remaining heparin-bound protein from the heparin-Sepharose. Samples of purified WT rHuADA2 and tested variants, before and after mixing with the heparin-Sepharose resin, were analyzed by SDS-PAGE to compare the degree of heparin binding.

Data set [2] in a line: Adenosine deaminase (ADA) enzymatic activity assay kit. The format is biochemical. The note with it: for adenosine deaminase activity mU/mL / ΔA/min, adenosine deaminase activity: protein diluted to 5 μg/mL, serially diluted 2 fold (Table 21); for % activity vs. WT: relative to rHuADA2 WT (Table 21).
Data set [3] is described as follows: Kinetic assessment of adenosine deaminase activity (ammonia assay, Michaelis-Menten). In kind it is biochemical. An outline of the steps:
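Coupled ammonia assay: rHuADA2 WT or variants (1 μg/mL, 17 nM in 2× mix) with adenosine 20 μM–20 mM, α-ketoglutarate, NADPH and GDH, at pH 7.6 or pH 6.5 (PIPES), room temperature. Michaelis-Menten fit gave Km, Vmax, kcat, kcat/Km.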

B1: R23A: ADA2 variant SEQ ID NO:28 (protein)
chain: IDETRAHLLLKEKMMRLGGALVLNTKEELANERLMTLKIAEMKEAMRTLIFPPSMHFFQAKHLIERSQVFNILRMMPKGAALHLHDIGIVTMDWLVRNVTYRPHCHICFTPRGIMQFRFAHPTPRPSEKCSKWILLEDYRKRVQNVTEFDDSLLRNFTLVTQHPEVIYTNQNVVWSKFETIFFTISGLIHYAPVFRDYVFRSMQEFYEDNVLYMEIRARLLPVYELSGEHHDEEWSVKTYQEVAQKFVETHPEFIGIKIIYSDHRSKDVAVIAESIRMAMGLRIKFPTVVAGFDLVGHEDTGHSLHDYKEALMIPAKDGVKLPYFFHAGETDWQGTSIDRNILDALMLNTTRIGHGFALSKHPAVRTYSWKKDIPIEVCPISNQVLKLVSDLRNHPVATLMATGHPMVISSDDPAMFGAKGLSYDFYEVFMGIGGMKADLRTLKQLAMNSIKYSTLLESEKNTFMEIWKKRWDKFIADVATK
modifications: human ADA2 R20A, mature numbering
As to B1, in data set [1], the “heparin binding compared to WT” value is “reduced heparin binding” and the “Heparin Column Binding” value is listed as “Reduced”. Moreover, in data set [2], the “enzymatic activity relative to WT rHuADA2” value is “reduced adenosine deaminase activity”; the “adenosine deaminase activity mU/mL” value was 53.3 mU/mL; the “ΔA/min, adenosine deaminase activity” value stood at 23.2; the “% activity vs. WT” value is 68.4%.

B2: R23D: ADA2 variant SEQ ID NO:29 (protein)
chain: IDETRAHLLLKEKMMRLGGDLVLNTKEELANERLMTLKIAEMKEAMRTLIFPPSMHFFQAKHLIERSQVFNILRMMPKGAALHLHDIGIVTMDWLVRNVTYRPHCHICFTPRGIMQFRFAHPTPRPSEKCSKWILLEDYRKRVQNVTEFDDSLLRNFTLVTQHPEVIYTNQNVVWSKFETIFFTISGLIHYAPVFRDYVFRSMQEFYEDNVLYMEIRARLLPVYELSGEHHDEEWSVKTYQEVAQKFVETHPEFIGIKIIYSDHRSKDVAVIAESIRMAMGLRIKFPTVVAGFDLVGHEDTGHSLHDYKEALMIPAKDGVKLPYFFHAGETDWQGTSIDRNILDALMLNTTRIGHGFALSKHPAVRTYSWKKDIPIEVCPISNQVLKLVSDLRNHPVATLMATGHPMVISSDDPAMFGAKGLSYDFYEVFMGIGGMKADLRTLKQLAMNSIKYSTLLESEKNTFMEIWKKRWDKFIADVATK
modifications: human ADA2 R20D, mature numbering
B2: in data set [1], the “heparin binding compared to WT” value is reported as “reduced heparin binding” and the “Heparin Column Binding” value was “Reduced”. Besides, in data set [2], the “enzymatic activity relative to WT rHuADA2” value is listed as “reduced adenosine deaminase activity”; the “adenosine deaminase activity mU/mL” value is 15.9 mU/mL; the “ΔA/min, adenosine deaminase activity” value is reported as 6.9; the “% activity vs. WT” value amounted to 20.3%.

B3: R369A: ADA2 variant SEQ ID NO:31 (protein)
chain: IDETRAHLLLKEKMMRLGGRLVLNTKEELANERLMTLKIAEMKEAMRTLIFPPSMHFFQAKHLIERSQVFNILRMMPKGAALHLHDIGIVTMDWLVRNVTYRPHCHICFTPRGIMQFRFAHPTPRPSEKCSKWILLEDYRKRVQNVTEFDDSLLRNFTLVTQHPEVIYTNQNVVWSKFETIFFTISGLIHYAPVFRDYVFRSMQEFYEDNVLYMEIRARLLPVYELSGEHHDEEWSVKTYQEVAQKFVETHPEFIGIKIIYSDHRSKDVAVIAESIRMAMGLRIKFPTVVAGFDLVGHEDTGHSLHDYKEALMIPAKDGVKLPYFFHAGETDWQGTSIDRNILDALMLNTTRIGHGFALSKHPAVATYSWKKDIPIEVCPISNQVLKLVSDLRNHPVATLMATGHPMVISSDDPAMFGAKGLSYDFYEVFMGIGGMKADLRTLKQLAMNSIKYSTLLESEKNTFMEIWKKRWDKFIADVATK
modifications: human ADA2 R366A, mature numbering
For B3, in data set [1], the “heparin binding compared to WT” value was “reduced heparin binding” and the “Heparin Column Binding” value is given as “Reduced”. Besides, in data set [2], the “enzymatic activity relative to WT rHuADA2” value was “reduced adenosine deaminase activity”; the “adenosine deaminase activity mU/mL” value is 34.3 mU/mL; the “ΔA/min, adenosine deaminase activity” value is 14.9; the “% activity vs. WT” value is recorded as 44%.

B4: R222Q: ADA2 variant SEQ ID NO:39 (protein)
chain: IDETRAHLLLKEKMMRLGGRLVLNTKEELANERLMTLKIAEMKEAMRTLIFPPSMHFFQAKHLIERSQVFNILRMMPKGAALHLHDIGIVTMDWLVRNVTYRPHCHICFTPRGIMQFRFAHPTPRPSEKCSKWILLEDYRKRVQNVTEFDDSLLRNFTLVTQHPEVIYTNQNVVWSKFETIFFTISGLIHYAPVFRDYVFRSMQEFYEDNVLYMEIRAQLLPVYELSGEHHDEEWSVKTYQEVAQKFVETHPEFIGIKIIYSDHRSKDVAVIAESIRMAMGLRIKFPTVVAGFDLVGHEDTGHSLHDYKEALMIPAKDGVKLPYFFHAGETDWQGTSIDRNILDALMLNTTRIGHGFALSKHPAVRTYSWKKDIPIEVCPISNQVLKLVSDLRNHPVATLMATGHPMVISSDDPAMFGAKGLSYDFYEVFMGIGGMKADLRTLKQLAMNSIKYSTLLESEKNTFMEIWKKRWDKFIADVATK
modifications: human ADA2 R219Q, mature numbering
In the case of B4, the Km in data set [3] (pH 6.5) came to 994 µM; in data set [3] (pH 6.5, [E] = 8.5 nM), 994 µM; in data set [3] (pH 7.6), 1920 µM; in data set [3] (pH 7.6, [E] = 8.5 nM), 1920 µM. The Vmax in data set [3] (pH 6.5, [E] = 8.5 nM) worked out at 42.15 µM/min; in data set [3] (pH 7.6, [E] = 8.5 nM), 59.28 µM/min. Further, the kcat stood at 82.65 s⁻¹ in data set [3] (pH 6.5, [E] = 8.5 nM, kcat=Vmax/0.0085/60) and 116.24 s⁻¹ in data set [3] (pH 7.6, [E] = 8.5 nM, kcat=Vmax/0.0085/60). The “Adenosine deaminase activity mU/ml” value in data set [2] (purified protein at 5 μg/mL) was determined as 132.9 mU/ml. In addition, the “Adenosine deaminase activity ΔA/min” value in data set [2] (purified protein at 5 μg/mL) is 57.8 ΔA/min. For the same molecule, the “% of WT activity” value in data set [2] (purified protein at 5 μg/mL, compared to WT-ADA2) amounted to 170%.

B5: K14E: ADA2 variant SEQ ID NO:15 (protein)
chain: IDETRAHLLLEEKMMRLGGRLVLNTKEELANERLMTLKIAEMKEAMRTLIFPPSMHFFQAKHLIERSQVFNILRMMPKGAALHLHDIGIVTMDWLVRNVTYRPHCHICFTPRGIMQFRFAHPTPRPSEKCSKWILLEDYRKRVQNVTEFDDSLLRNFTLVTQHPEVIYTNQNVVWSKFETIFFTISGLIHYAPVFRDYVFRSMQEFYEDNVLYMEIRARLLPVYELSGEHHDEEWSVKTYQEVAQKFVETHPEFIGIKIIYSDHRSKDVAVIAESIRMAMGLRIKFPTVVAGFDLVGHEDTGHSLHDYKEALMIPAKDGVKLPYFFHAGETDWQGTSIDRNILDALMLNTTRIGHGFALSKHPAVRTYSWKKDIPIEVCPISNQVLKLVSDLRNHPVATLMATGHPMVISSDDPAMFGAKGLSYDFYEVFMGIGGMKADLRTLKQLAMNSIKYSTLLESEKNTFMEIWKKRWDKFIADVATK
modifications: human ADA2 K11E, mature numbering
For B5, the “heparin binding compared to WT” value in data set [1] is on record as “not attenuated”. Further, in data set [2], the “enzymatic activity relative to WT rHuADA2” value is given as “improved enzymatic activity”; the “adenosine deaminase activity mU/mL” value was found to be 89.1 mU/mL; the “ΔA/min, adenosine deaminase activity” value came to 38.8; the “% activity vs. WT” value is listed as 114.2%.

B6: K374A: ADA2 variant SEQ ID NO:19 (protein)
chain: IDETRAHLLLKEKMMRLGGRLVLNTKEELANERLMTLKIAEMKEAMRTLIFPPSMHFFQAKHLIERSQVFNILRMMPKGAALHLHDIGIVTMDWLVRNVTYRPHCHICFTPRGIMQFRFAHPTPRPSEKCSKWILLEDYRKRVQNVTEFDDSLLRNFTLVTQHPEVIYTNQNVVWSKFETIFFTISGLIHYAPVFRDYVFRSMQEFYEDNVLYMEIRARLLPVYELSGEHHDEEWSVKTYQEVAQKFVETHPEFIGIKIIYSDHRSKDVAVIAESIRMAMGLRIKFPTVVAGFDLVGHEDTGHSLHDYKEALMIPAKDGVKLPYFFHAGETDWQGTSIDRNILDALMLNTTRIGHGFALSKHPAVRTYSWAKDIPIEVCPISNQVLKLVSDLRNHPVATLMATGHPMVISSDDPAMFGAKGLSYDFYEVFMGIGGMKADLRTLKQLAMNSIKYSTLLESEKNTFMEIWKKRWDKFIADVATK
modifications: human ADA2 K371A, mature numbering
Turning to B6, in data set [1], the “Heparin Column Binding” value is “Reduced”. In data set [2], the “adenosine deaminase activity mU/mL” value worked out at 59.2 mU/mL; the “ΔA/min, adenosine deaminase activity” value is listed as 25.8; the “% activity vs. WT” value was 75.9%.

B7: K374D/V102-Q147del→(GGGGS)2 (protein)
chain: IDETRAHLLLKEKMMRLGGRLVLNTKEELANERLMTLKIAEMKEAMRTLIFPPSMHFFQAKHLIERSQVFNILRMMPKGAALHLHDIGIVTMDWLVRNGGGGSGGGGSNVTEFDDSLLRNFTLVTQHPEVIYTNQNVVWSKFETIFFTISGLIHYAPVFRDYVFRSMQEFYEDNVLYMEIRARLLPVYELSGEHHDEEWSVKTYQEVAQKFVETHPEFIGIKIIYSDHRSKDVAVIAESIRMAMGLRIKFPTVVAGFDLVGHEDTGHSLHDYKEALMIPAKDGVKLPYFFHAGETDWQGTSIDRNILDALMLNTTRIGHGFALSKHPAVRTYSWDKDIPIEVCPISNQVLKLVSDLRNHPVATLMATGHPMVISSDDPAMFGAKGLSYDFYEVFMGIGGMKADLRTLKQLAMNSIKYSTLLESEKNTFMEIWKKRWDKFIADVATK
modifications: V102-Q147 replaced by (GGGGS)2; human ADA2 K371D/V99-Q144del->(GGGGS)2, mature numbering
In the case of B7, in data set [3] (pH 7.6, [E] = 8.5 nM), the Km is 870 µM, the Vmax is 44.52 µM/min and the kcat stood at 87.29 s⁻¹.
